Reference: paper doi:10.1101/2021.07.03.450947, “The pore conformation of lymphocyte perforin” (bioRxiv, 2021)

Biological target: the molecule itself
Test: cryo-electron tomography; prepores on liposomes (PC, cholesterol, biotinyl PE 6:3:1) held on streptavidin grids; 20 mM HEPES pH 7.5, 150 mM NaCl, 5 mM CaCl2; 5-10 min at 37°C; protein to lipid about 1:10,000

B1: TMH1-lock mutant of perforin (A144C-W373C) (natural protein, mouse, UniProt P10820 21-554, looked up)
chain: PCYTATRSECKQKHKFVPGVWMAGEGMDVTTLRRSGSFPVNTQRFLRPDRTCTLCKNSLMRDATQRLPVAITHWRPHSSHCQRNVAAAKVHSTEGVAREAAANINNDWRVGLDVNPRPEANMRCSVAGSHSKVANFAAEKTYQDQYNFNSDTVECRMYSFRLVQKPPLHLDFKKALRALPRNFNSSTEHAYHRLISSYGTHFITAVDLGGRISVLTALRTCQLTLNGLTADEVGDCLNVEAQVSIGAQASVSSEYKACEEKKKQHKMATSFHQTYRERHVEVLGGPLDSTHDLLFGNQATPEQFSTWTASLPSNPGLVDYSLEPLHTLLEEQNPKREALRQAISHYIMSRARCQNCSRPCRSGQHKSSHDSCQCECQDSKVTNQDCCPRQRGLAHLVVSNFRAEHLWGDYTTATDAYLKVFFGGQEFRTGVVWNNNNPRWTDKMDFENVLLSTGGPLRVQVWDADYGWDDDLLGSCDRSPHSGFHEVTCELNHGRVKFSYHAKCLPHLTGGTCLEYAPQGLLGDPPGNRSGAVW
modifications: engineered disulphide bond between A144C and W373C
notes: perforin, mouse, with the engineered disulphide A144C-W373C that tethers TMH1 to the core of the MACPF domain; also called A144C-W373C perforin; source: baculovirus/insect cell system, purified from the supernatant
B1: binds.
